{
  "source": "patent US20260224624A1",
  "target": "recombinant human TGFβ1 (rhTGFβ) (human) (UniProt P01137)",
  "sequence (P01137 279-390 limits assumed)": "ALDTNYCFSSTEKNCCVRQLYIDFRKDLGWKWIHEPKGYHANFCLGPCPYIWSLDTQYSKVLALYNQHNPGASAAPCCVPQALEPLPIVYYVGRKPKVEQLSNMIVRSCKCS",
  "experiment": "cell-based or functional assay",
  "data": [
    {"substance": "TGFβ-switch receptor (SwR): extracellular domains of TGFβRI and TGFβRII fused to the transmembrane and intracellular domains of the IL-2/IL-15 receptor β and γ chains", "values": [
      {"measurement": "expansion of JK59 SwR-STEAP1 CAR T cells cultured 21 days with rhTGFβ", "result": 15, "unit": "fold"},
      {"measurement": "expansion of JK69 SwR-STEAP1 CAR T cells cultured 21 days with rhTGFβ", "result": 33, "unit": "fold"},
      {"measurement": "phosphorylation level of STAT5 (pY694) in CD3+ JK59 CAR T cells treated with rhTGFβ at 10 ng/ml for 15 min, flow cytometry", "result": 60, "unit": "%"}
    ]}
  ]
}
